Test results from patent publication US20210230279A1 (University of California, published 2021).
Numbering of substitutions follows the chain as printed.

B1: C6 VH / RGD3-10 Vk murine IgG (antibody, V domains shown)
VH: QIQLLQSGPELKKPGETVKISCKASGYTFTDYSMHWVKQAPGKGLKWVARINTETGEPTFADDFRGRFAVSLETSASTAYLQINNLKNEDTATYFCAIFYYGRDSWGQGTTLTVSS
VL: DIVMTQSPSSLAVSAGEKVTMSCKSSQSLLGRGDLGRLKKQKDHWYQQKPGQSPRLLIYWASTRESGVPDRFTGSGSGTDFTLTISSVQAEDLAVYYCKQSYNLLSFGAGTKLELKR
notes: Murine IgG, supernatant of 293 cells; CDRL1 swap into the C6D4 murine IgG vector, VH not altered; also called C6RGD3-10
B2: C6 VH / RGD3-4 Vk murine IgG (antibody, V domains shown)
VH: B1 VH
VL: DIVMTQSPSSLAVSAGEKVTMSCKSSQSLLGRGDLGRLKKQNALAWYQQKPGQSPRLLIYWASTRESGVPDRFTGSGSGTDFTLTISSVQAEDLAVYYCKQSYNLLSFGAGTKLELKR
notes: Murine IgG, supernatant of 293 cells; CDRL1 swap into the C6D4 murine IgG vector, VH not altered; also called C6RGD3-4
B3: C6 VH / RGD3-3 Vk murine IgG (antibody, V domains shown)
VH: B1 VH
VL: DIVMTQSPSSLAVSAGEKVTMSCKSSQSLLGRGDLGRLKKQKNALAWYQQKPGQSPRLLIYWASTRESGVPDRFTGSGSGTDFTLTISSVQAEDLAVYYCKQSYNLLSFGAGTKLELKR
notes: Murine IgG, supernatant of 293 cells; CDRL1 swap into the C6D4 murine IgG vector, VH not altered; also called C6RGD3-3
B4: C6 VH / RGD3-6 Vk murine IgG (antibody, V domains shown)
VH: B1 VH
VL: DIVMTQSPSSLAVSAGEKVTMSCKSSQSLLGRGDLGRLKNALAWYQQKPGQSPRLLIYWASTRESGVPDRFTGSGSGTDFTLTISSVQAEDLAVYYCKQSYNLLSFGAGTKLELKR
notes: Murine IgG, supernatant of 293 cells; CDRL1 swap into the C6D4 murine IgG vector, VH not altered; also called C6RGD3-6
B5: C6 VH / RGD3-1 Vk murine IgG (antibody, V domains shown)
VH: B1 VH
VL: DIVMTQSPSSLAVSAGEKVTMSCKSSQSLLGRGDLGRLKKQKDHNALAWYQQKPGQSPRLLIYWASTRESGVPDRFTGSGSGTDFTLTISSVQAEDLAVYYCKQSYNLLSFGAGTKLELKR
notes: Murine IgG, supernatant of 293 cells; CDRL1 swap into the C6D4 murine IgG vector, VH not altered; also called C6RGD3-1
B6: C6 VH / RGD3-7 Vk murine IgG (antibody, V domains shown)
VH: B1 VH
VL: DIVMTQSPSSLAVSAGEKVTMSCKSSQSLLGRGDLGRLNALAWYQQKPGQSPRLLIYWASTRESGVPDRFTGSGSGTDFTLTISSVQAEDLAVYYCKQSYNLLSFGAGTKLELKR
notes: Murine IgG, supernatant of 293 cells; CDRL1 swap into the C6D4 murine IgG vector, VH not altered; also called C6RGD3-7
B7: C6 VH / RGD3-8 Vk murine IgG (antibody, V domains shown)
VH: B1 VH
VL: DIVMTQSPSSLAVSAGEKVTMSCKSSQSLLGRGDLGRNALAWYQQKPGQSPRLLIYWASTRESGVPDRFTGSGSGTDFTLTISSVQAEDLAVYYCKQSYNLLSFGAGTKLELKR
notes: Murine IgG, supernatant of 293 cells; CDRL1 swap into the C6D4 murine IgG vector, VH not altered; also called C6RGD3-8
B8: C6 VH / RGD3-2 Vk murine IgG (antibody, V domains shown)
VH: B1 VH
VL: DIVMTQSPSSLAVSAGEKVTMSCKSSQSLLGRGDLGRLKKQKDNALAWYQQKPGQSPRLLIYWASTRESGVPDRFTGSGSGTDFTLTISSVQAEDLAVYYCKQSYNLLSFGAGTKLELKR
notes: Murine IgG, supernatant of 293 cells; CDRL1 swap into the C6D4 murine IgG vector, VH not altered; also called C6RGD3-2
B9: C6 VH / RGD3-12 Vk murine IgG (antibody, V domains shown)
VH: B1 VH
VL: B6 VL with N39K, A40K, L41Q, A42K
notes: Murine IgG, supernatant of 293 cells; CDRL1 swap into the C6D4 murine IgG vector, VH not altered; also called C6RGD3-12
B10: C6 VH / RGD3-9 Vk murine IgG (antibody, V domains shown)
VH: B1 VH
VL: B2 VL with N42K, A43D, L44H, A45H
notes: Murine IgG, supernatant of 293 cells; CDRL1 swap into the C6D4 murine IgG vector, VH not altered; also called C6RGD3-9
B11: C6 VH / RGD3-11 Vk murine IgG (antibody, V domains shown)
VH: B1 VH
VL: B4 VL with N40K, A41Q, L42K, A43D
notes: Murine IgG, supernatant of 293 cells; CDRL1 swap into the C6D4 murine IgG vector, VH not altered; also called C6RGD3-11
B12: clone 29 (scFv, yeast display) (scFv, V domains shown)
VH: B1 VH with F99Y
VL: DIVMSQSPSSLAVSAGEKVTMSCKSSQSLLNSRTRKNYLAWYQQKPGQSPRLLIYWASTRESGVPDRFTGSGSGTDFTLTISSVQAEDLAVYYCKQSYNLLTFGAGTKLELKA
notes: scFv on yeast
B13: clone 44 (scFv, yeast display) (scFv, V domains shown)
VH: B1 VH with F99Y
VL: B12 VL with A86D
notes: scFv on yeast

target: T1, recombinant human integrin αvβ5 (human, UniProt P18084 24-719); assay: ELISA on coated recombinant human integrin; 0 = no apparent binding
T1 construct: Bought; also called αvβ5 (R&D systems)
T1 sequence (chain, as listed by the source limits assumed, chain 1 of 2): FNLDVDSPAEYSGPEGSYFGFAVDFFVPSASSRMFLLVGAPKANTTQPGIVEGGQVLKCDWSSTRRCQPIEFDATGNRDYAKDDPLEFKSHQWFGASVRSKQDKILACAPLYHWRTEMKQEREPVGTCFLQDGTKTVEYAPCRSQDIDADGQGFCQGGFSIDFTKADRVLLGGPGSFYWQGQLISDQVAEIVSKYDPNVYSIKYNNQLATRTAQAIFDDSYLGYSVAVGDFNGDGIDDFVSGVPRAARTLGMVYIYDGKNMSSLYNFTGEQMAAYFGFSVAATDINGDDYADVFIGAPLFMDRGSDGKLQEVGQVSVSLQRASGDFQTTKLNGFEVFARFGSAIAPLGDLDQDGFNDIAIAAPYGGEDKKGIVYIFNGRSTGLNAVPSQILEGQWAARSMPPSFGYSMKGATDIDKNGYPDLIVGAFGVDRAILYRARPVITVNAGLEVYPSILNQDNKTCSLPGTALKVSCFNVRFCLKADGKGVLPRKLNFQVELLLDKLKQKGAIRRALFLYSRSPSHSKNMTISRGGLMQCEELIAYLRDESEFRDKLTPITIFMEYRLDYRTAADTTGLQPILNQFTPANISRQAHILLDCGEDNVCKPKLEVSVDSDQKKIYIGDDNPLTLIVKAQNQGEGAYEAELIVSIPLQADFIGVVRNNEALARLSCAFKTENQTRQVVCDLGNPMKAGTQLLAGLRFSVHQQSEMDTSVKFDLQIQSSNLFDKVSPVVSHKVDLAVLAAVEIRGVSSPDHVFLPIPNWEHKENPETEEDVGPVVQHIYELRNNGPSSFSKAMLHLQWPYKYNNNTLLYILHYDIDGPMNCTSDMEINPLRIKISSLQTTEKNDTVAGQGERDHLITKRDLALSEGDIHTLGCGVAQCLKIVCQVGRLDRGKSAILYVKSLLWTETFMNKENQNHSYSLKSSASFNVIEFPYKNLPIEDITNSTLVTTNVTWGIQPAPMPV
T1 sequence (P18084 24-719 limits assumed, chain 2 of 2): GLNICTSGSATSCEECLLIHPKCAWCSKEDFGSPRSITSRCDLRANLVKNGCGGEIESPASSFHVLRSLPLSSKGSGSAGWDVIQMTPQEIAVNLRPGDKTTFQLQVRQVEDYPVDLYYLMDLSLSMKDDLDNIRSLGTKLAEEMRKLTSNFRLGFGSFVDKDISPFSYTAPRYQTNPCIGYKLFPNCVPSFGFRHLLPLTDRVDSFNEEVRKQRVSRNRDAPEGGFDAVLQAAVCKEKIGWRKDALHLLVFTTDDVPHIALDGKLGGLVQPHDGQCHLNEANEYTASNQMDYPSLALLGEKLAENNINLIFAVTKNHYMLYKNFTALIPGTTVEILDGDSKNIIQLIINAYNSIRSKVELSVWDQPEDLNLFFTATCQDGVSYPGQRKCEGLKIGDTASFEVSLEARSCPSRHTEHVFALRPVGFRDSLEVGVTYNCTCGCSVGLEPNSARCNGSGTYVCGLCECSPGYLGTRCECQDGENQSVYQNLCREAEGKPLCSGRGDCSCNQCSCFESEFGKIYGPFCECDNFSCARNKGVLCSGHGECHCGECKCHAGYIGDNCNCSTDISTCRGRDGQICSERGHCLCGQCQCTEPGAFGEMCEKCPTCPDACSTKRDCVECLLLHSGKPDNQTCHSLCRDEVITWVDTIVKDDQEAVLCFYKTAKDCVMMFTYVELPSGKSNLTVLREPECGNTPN
Source text: (§1) Binding was quantified by intensity as 0-4 (0 representing no apparent binding; 4 representing robust binding) and results normalized to expression.

Row | Binder | binding result
1 | B1 | no binding (tested: supernatant at 1/10 dilution)
2 | B2 | no binding (tested: supernatant at 1/10 dilution)
3 | B3 | no binding (tested: supernatant at 1/10 dilution)
4 | B4 | no binding (tested: supernatant at 1/10 dilution)
5 | B5 | no binding (tested: supernatant at 1/10 dilution)
6 | B6 | no binding (tested: supernatant at 1/10 dilution)
7 | B7 | no binding (tested: supernatant at 1/10 dilution)
8 | B8 | no binding (tested: supernatant at 1/10 dilution)
9 | B9 | no binding (tested: supernatant at 1/10 dilution)
10 | B10 | no binding (tested: supernatant at 1/10 dilution)
11 | B11 | no binding (tested: supernatant at 1/10 dilution)

target: T2, recombinant human integrin αvβ8 (human, UniProt P06756 31-992; P26012 43-684); assay: as above
T2 construct: also called Human Integrin alpha V beta 8; purified recombinant αvβ8
T2 sequence (P06756 31-992 limits assumed, chain 1 of 2): as the sequence (chain, as listed by the source limits assumed, chain 1 of 2) above
T2 sequence (P26012 43-684 limits assumed, chain 2 of 2): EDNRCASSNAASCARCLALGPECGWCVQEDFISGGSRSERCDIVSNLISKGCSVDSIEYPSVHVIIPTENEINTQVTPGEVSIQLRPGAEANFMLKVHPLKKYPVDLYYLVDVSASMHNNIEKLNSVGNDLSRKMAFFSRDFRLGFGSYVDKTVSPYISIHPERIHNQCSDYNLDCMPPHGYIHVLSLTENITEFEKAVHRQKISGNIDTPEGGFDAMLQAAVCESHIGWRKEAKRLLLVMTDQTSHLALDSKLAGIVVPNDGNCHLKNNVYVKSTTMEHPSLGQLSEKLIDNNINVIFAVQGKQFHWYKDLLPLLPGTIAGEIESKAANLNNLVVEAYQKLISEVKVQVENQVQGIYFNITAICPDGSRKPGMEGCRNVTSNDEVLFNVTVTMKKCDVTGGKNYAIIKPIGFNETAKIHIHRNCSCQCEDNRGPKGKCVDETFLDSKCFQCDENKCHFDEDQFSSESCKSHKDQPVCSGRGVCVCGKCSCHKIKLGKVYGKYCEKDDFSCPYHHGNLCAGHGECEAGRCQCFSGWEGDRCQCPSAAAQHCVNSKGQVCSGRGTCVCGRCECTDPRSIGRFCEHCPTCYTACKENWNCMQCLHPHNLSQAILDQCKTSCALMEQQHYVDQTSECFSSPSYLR
Source text: as §1

Row | Binder | binding result
12 | B1 | no binding (tested: supernatant at 1/10 dilution)
13 | B9 | no binding (tested: supernatant at 1/10 dilution)
14 | B10 | no binding (tested: supernatant at 1/10 dilution)

target: T3, recombinant human integrin αvβ3 (human, UniProt P05106 27-718); assay: as above
T3 construct: Bought; also called αvβ3 (R&D systems)
T3 sequence (chain, as listed by the source limits assumed, chain 1 of 2): as the sequence (chain, as listed by the source limits assumed, chain 1 of 2) above
T3 sequence (P05106 27-718 limits assumed, chain 2 of 2): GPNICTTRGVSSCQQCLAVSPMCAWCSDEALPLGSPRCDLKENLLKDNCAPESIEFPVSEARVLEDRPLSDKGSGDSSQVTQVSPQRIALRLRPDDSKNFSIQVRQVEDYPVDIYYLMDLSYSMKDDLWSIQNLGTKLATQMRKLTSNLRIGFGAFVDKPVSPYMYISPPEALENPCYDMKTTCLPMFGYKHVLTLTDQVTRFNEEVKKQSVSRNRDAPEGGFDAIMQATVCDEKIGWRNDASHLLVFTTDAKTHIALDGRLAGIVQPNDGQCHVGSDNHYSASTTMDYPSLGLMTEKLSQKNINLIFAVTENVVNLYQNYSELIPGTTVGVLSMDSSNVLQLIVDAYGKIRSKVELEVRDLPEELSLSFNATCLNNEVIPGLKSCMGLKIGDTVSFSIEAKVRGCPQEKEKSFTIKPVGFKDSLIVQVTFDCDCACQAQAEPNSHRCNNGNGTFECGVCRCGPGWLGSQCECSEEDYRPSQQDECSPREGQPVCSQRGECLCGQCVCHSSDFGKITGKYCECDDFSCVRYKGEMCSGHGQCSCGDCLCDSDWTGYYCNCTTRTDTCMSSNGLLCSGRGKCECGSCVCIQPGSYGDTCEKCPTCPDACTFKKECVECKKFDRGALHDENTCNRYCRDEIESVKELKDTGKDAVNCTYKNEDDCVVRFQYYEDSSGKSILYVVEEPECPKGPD
Source text: as §1

Row | Binder | binding result
15 | B1 | no binding (tested: supernatant at 1/10 dilution)
16 | B2 | no binding (tested: supernatant at 1/10 dilution)
17 | B3 | no binding (tested: supernatant at 1/10 dilution)
18 | B4 | no binding (tested: supernatant at 1/10 dilution)
19 | B5 | no binding (tested: supernatant at 1/10 dilution)
20 | B8 | no binding (tested: supernatant at 1/10 dilution)
21 | B10 | no binding (tested: supernatant at 1/10 dilution)
22 | B11 | no binding (tested: supernatant at 1/10 dilution)

target: T4, recombinant human integrin αvβ1 (human, UniProt P05556 21-728); assay: as above
T4 construct: Bought; also called αvβ1 (R&D systems)
T4 sequence (chain, as listed by the source limits assumed, chain 1 of 2): as the sequence (chain, as listed by the source limits assumed, chain 1 of 2) above
T4 sequence (P05556 21-728 limits assumed, chain 2 of 2): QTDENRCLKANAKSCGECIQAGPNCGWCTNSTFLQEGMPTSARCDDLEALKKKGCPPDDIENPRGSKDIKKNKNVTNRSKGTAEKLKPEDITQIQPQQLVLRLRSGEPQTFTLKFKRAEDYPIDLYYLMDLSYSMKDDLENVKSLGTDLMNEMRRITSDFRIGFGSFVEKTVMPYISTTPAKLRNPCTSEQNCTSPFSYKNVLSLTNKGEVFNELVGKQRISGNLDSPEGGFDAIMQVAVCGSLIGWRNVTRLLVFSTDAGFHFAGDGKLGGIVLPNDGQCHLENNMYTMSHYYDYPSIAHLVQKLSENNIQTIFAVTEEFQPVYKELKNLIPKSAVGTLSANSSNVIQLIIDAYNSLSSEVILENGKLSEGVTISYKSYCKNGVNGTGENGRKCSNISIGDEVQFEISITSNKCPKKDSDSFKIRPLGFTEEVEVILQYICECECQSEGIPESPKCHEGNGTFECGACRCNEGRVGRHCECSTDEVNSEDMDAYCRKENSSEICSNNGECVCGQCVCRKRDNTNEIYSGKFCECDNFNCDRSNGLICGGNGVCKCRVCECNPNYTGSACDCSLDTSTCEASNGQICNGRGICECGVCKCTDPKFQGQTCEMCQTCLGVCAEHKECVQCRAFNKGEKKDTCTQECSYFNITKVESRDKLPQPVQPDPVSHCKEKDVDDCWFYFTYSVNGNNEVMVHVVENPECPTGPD
Source text: as §1

Row | Binder | binding result
23 | B1 | no binding (tested: supernatant at 1/10 dilution)
24 | B2 | no binding (tested: supernatant at 1/10 dilution)
25 | B3 | no binding (tested: supernatant at 1/10 dilution)
26 | B4 | no binding (tested: supernatant at 1/10 dilution)
27 | B5 | no binding (tested: supernatant at 1/10 dilution)
28 | B6 | no binding (tested: supernatant at 1/10 dilution)
29 | B7 | no binding (tested: supernatant at 1/10 dilution)
30 | B8 | no binding (tested: supernatant at 1/10 dilution)
31 | B9 | no binding (tested: supernatant at 1/10 dilution)
32 | B10 | no binding (tested: supernatant at 1/10 dilution)
33 | B11 | no binding (tested: supernatant at 1/10 dilution)

target: T2, recombinant human integrin αvβ8; assay: scFv yeast display selection

Row | Binder | binding result
34 | B12 | binds
35 | B13 | binds

target: T2, recombinant human integrin αvβ8; assay: ELISA: integrin coated on plate, supernatant of transfected 293 cells at 1/10 dilution, anti-mouse IgG-HRP; score normalized to expression;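 further: scale runs from 0 (no apparent binding) to 4 (robust binding), with scores adjusted for clone protein expression as determined by a murine IgG ELISA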
Source text: as §1

Row | Binder | binding intensity score (0-4) [score 0-4]
36 | B2 | 4
37 | B3 | 4
38 | B4 | 4
39 | B5 | 1
40 | B6 | 2
41 | B7 | 3
42 | B8 | 4
43 | B11 | 1

target: T5, recombinant human integrin αvβ6 (human, UniProt P18564 22-707); assay: as above
T5 construct: also called αvβ6 (R&D systems); αvβ6 receptor
T5 sequence (chain, as listed by the source limits assumed, chain 1 of 2): as the sequence (chain, as listed by the source limits assumed, chain 1 of 2) above
T5 sequence (P18564 22-707 limits assumed, chain 2 of 2): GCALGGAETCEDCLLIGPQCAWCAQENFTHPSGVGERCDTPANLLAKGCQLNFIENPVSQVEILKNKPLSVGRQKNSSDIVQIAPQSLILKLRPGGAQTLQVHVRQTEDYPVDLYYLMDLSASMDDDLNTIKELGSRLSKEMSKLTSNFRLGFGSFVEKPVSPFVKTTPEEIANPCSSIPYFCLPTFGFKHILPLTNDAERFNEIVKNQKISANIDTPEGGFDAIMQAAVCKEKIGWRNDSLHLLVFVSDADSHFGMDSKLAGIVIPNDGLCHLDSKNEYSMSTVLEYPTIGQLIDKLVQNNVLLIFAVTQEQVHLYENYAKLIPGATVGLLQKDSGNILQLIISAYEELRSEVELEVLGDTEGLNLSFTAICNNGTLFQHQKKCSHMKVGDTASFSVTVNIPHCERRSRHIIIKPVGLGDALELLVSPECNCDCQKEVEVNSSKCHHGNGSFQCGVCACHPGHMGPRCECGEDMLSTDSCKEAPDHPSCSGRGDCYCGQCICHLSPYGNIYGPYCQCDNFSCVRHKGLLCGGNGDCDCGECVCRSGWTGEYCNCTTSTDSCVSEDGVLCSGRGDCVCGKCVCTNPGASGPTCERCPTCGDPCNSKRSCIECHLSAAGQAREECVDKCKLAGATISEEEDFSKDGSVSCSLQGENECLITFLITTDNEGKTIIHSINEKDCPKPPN
Source text: as §1

Row | Binder | binding intensity score (0-4) [score 0-4]
44 | B1 | 1
45 | B2 | 4
46 | B3 | 4
47 | B4 | 4
48 | B5 | 4
49 | B6 | 2
50 | B7 | 3
51 | B8 | 4
52 | B9 | 2
53 | B10 | 3
54 | B11 | 2

target: T3, recombinant human integrin αvβ3; assay: as above
Source text: as §1

Row | Binder | binding intensity score (0-4) [score 0-4]
55 | B6 | 4
56 | B7 | 3
57 | B9 | 1
